The text below walks through data of the DeepSol protein solubility set.

The nature of this data set: soluble on expression in E. coli; label from the status in PepcDB or PDB records.
Regarding “MNYFVGNSLGVNLTGIEKAIINRLNLFKEMGRPAQCVFLSWNRYLYRNAQNYITSSDYINMYDFFQEATYLERNEPFDWLSYWTDECHYTLKHVENSHDFRIYDQERFLMYAHFQDPKYRILDYVNHFDSQRRKVKRDFYDVRGFLSCSRILVDKQQTLCEFFYNPEGDTKLEKYFSYKDGKPEVQKIIVYYANKQYFFNNETELGAFFIKQLYQHGDLFFSDRNVYTAPIFNLTPESIPVVAVLHSTHIKNIDALDSSPFKNVYKAMFENLSRYRAIIVSTEQQKLDVEKRINHTIPVVNIPVGYSETIDTPVQTLDQRSVKLISVARYSPEKQLHQQIELIKRLVSYVPKIELHMYGFGSESKKLNELIQKYGLENHVYLRGFLSNLDQEYSDAYLSLITSNMEGFSLALLESLAHGVPVISYDIKYGPNELITSDFNGYLITKNDEDALFDKVKYVIDHPEVQQRLSKGSLAKAQQYSKASLIKQWDQFVRLI”, the “soluble on expression in E. coli” value is given as “not soluble”.

“GMSAGKTVVIALGGNAMLQAKEKGDYDTQRKNVEIAASEIYKIHKAGYKVVLTSGNGPQVGAIKLQNQAAAGVSPEMPLHVCGAMSQGFIGYMMSQAMDNVFCANNEPANCVTCVTQTLVDPKDQAFTNPTKPVGRFYTEQEAKDLMAANPGKILREDAGRGWRVVVPSPRPLEIVEYGVIKTLIDNNVLVICTNGGGIPCKRENKVISGVDAVIDKDLATSLLAKTLNSDYLMILTDVLNACINYKKPDERKLEEIKLSEILALEKDGHFAAGSMGPKVRAAIEFTQATGKMSIITSLSTAVDALNGKCGTRIIKD”: the “soluble on expression in E. coli” value is given as “soluble”.

In the case of “MKYLLPTAAAGLLLLAAQPAMAMASGGNSDSKTLNSLDKIKQNGVVRIGVFGDKPPFGYVDEKGNNQGYDIALAKRIAKELFGDENKVQFVLVEAANRVEFLKSNKVDIILANFTQTPQRAEQVDFCSPYMKVALGVAVPKDSNITSVEDLKDKTLLLNKGTTADAYFTQNYPNIKTLKYDQNTETFAALMDKRGDALSHDNTLLFAWVKDHPDFKMGIKELGNKDVIAPAVKKGDKELKEFIDNLIIKLGQEQFFHKAYDETLKAHFGDDVKADDVVIEGGKILEHHHHHH”, the “soluble on expression in E. coli” value is on record as “soluble”.

“MGSDKIHHHHHHMYVAVKGGETAIANAHSLLADRRRGDRSLPTMTVDQIVEQLTLAVGRVMAEASLYDRKLAALAIKQARGDMIEAIFLLRAYRTTLPRFGLSEPVDTGAMRIERRISATYKDLPGGQLLGPTFDYTHRLLDPSLLEEGDVEPPVQKIPTSEAAMRVSDILREEGLIEPDGDMPEDHLAGDITRQPIEFPMARDLRLQSLARGDEGFLLALAYSTQRGYGRSHPFAGEIRLGEVEVELDVPELGFAVSLGRIQVTECQMVNQFKGSSKAPPQFTRGYGLVFGQSERKAMAMSLVDRSLRAEELGEDITAPAQDQEFVLSHCDNVQATGFVEHLKLPHYVDFQAELDLVRRMRSEHEQARQQGLDLSEAAE”: the “soluble on expression in E. coli” value is “not soluble”.

On to “MAAEEGAVIACHTKQEFDTHMANGKDTGKLVIIDFTASWCGPCRVIAPVFAEYAKKFPGAIFLKVDVDELKDVAEAYNVEAMPTFLFIKDGEKVDSVVGGRKDDIHTKIVALMGSAST”, for which the “soluble on expression in E. coli” value was “soluble”.

In the case of “MMIDDSKVSFVIPTINEEGTIGSVIDGIRSEFPNSEIIVVDTNSTDRTREIARSKGARVIEEPRRGYGRAYQTGIPAASGEIIVCMDGDGTYPTDVVKPLIELLIADRVDFISCDRITFRTSKNYTTLHYVGNMVLNLTIRILFKVRMVDSQSGMWVFRSEIYRKMKNLGNGMSFSQNIKIEAVRHGVFMEIPIRYGVRITKPKLKTWHDGFHNLFALFVKRVSELEHHHHHH”, the “soluble on expression in E. coli” value was “soluble”.

“MGHHHHHHHHHHSSGHIEGRHMGKNVLLLGSGFVAQPVIDTLAANDDINVTVACRTLANAQALAKPSGSKAISLDVTDDSALDKVLADNDVVISLIPYTFHPNVVKSAIRTKTDVVTSSYISPALRELEPEIVKAGITVMNEIGLDPGIDHLYAVKTIDEVHRAGGKLKSFLSYCGGLPAPEDSDNPLGYKFSWSSRGVLLALRNSAKYWKDGKIETVSSEDLMATAKPYFIYPGYAFVCYPNRDSTLFKDLYHIPEAETVIRGTLRYQGFPEFVKALVDMGMLKDDANEIFSKPIAWNEALKQYLGAKSTSKEDLIASIDSKATWKDDEDRERILSGFAWLGLFSDAKITPRGNALDTLCARLEELMQYEDNERDMVVLQHKFGIEWADGTTETRTSTLVDYGKVGGYSSMAATVGYPVAIATKFVLDGTIKGPGLLAPYSPEINDPIMKELKDKYGIYLKEKTVA”: the “soluble on expression in E. coli” value was “soluble”.

“AIAERSFVWLSCLDSDSCNLTFRLGEVESHACSPSLLWNLLTQYLPPGAGHILRTYNFPVLSCVSSCHLIGGKMPEN”: the “soluble on expression in E. coli” value is “soluble”.

Turning to “MGSDKIHHHHHHMATQTDSEAALRIASGRKAFVEPLRLGERLKEIRLSNRWTLEDVSQRTGLARSTLSKIENDQISPTFSAVQKLIGGLGIDLPQLLTPPKPQSRTLGRRDLTRVGEGKQHPTPTYEHELLSWQLAQKRMIPFKTIVRARDFNEFSEWVRHDGEEFLMVLDGDIWLYTEFYEPLHLAQGDSIYFDSDMGHALISVSETDAVVLSVCTRGENA”, the “soluble on expression in E. coli” value is recorded as “not soluble”.

Regarding “MSLGTGRNGGRAIVATGLGQCCWDTLAVVDSYPSPDSKAEAAVWAEQAGGPTATALVALARLGIPCRFAGVVGDDDAGSRIRQALDSEGVDGAFLVTRRRGASQRAFIMIERGSGRRTIVWRRPTGDPLDPREVPDAFLAGSSLLLLDGLMADASLHAAGRARSLGIPVMVDAGRMRPGMLDITRQCDYVVAAEQFFLDLGWDRTPEHFRGLAADLGAPVVTVTLGAAGSLTWSGHEPFHVPAFTVDAVDTTGAGDVFHGGYGYGILQGWSVRETVVFASAMAAMKCRQVGAQQGIPRLPDVLEFLTRRTITVLSNPQTEGHHHHHH”, the “soluble on expression in E. coli” value is reported as “soluble”.

In the case of “MRVSLFLQKQIIECSKAFQPHSTRLQWPKSQDKVFVAMSGGVDSSFSAYLLKSQGYNVEGVFMRNWLDEDSAPSGCPAERDWATVQKVCKKLNISCRRFNFEKEYWNLVFEPSLDLYENGLTPNPDVSCNRQVKFGALFDALKKHCENNVKGDWWLASGHYAKSVVNIETNESHMCIPTDKRKDQTLFLCTIRKEALEKTIFPLHNWTKENVKKQASSAGFKEIAEKQESQGLCFVSPNVGRKFRKFLQRYLNFSDRPIKVIAGKNVVGEFSGNHGIWSLTVGERCGLSLPQAQSEYFGRWYVWKKDIKNNALYICRGTNNELLMSKCIYLKDWKWCGTKLQNLEKSALSCFVRVRHQQPLQPAKVTWRNPESVKIHFQDKQRAVTPGQVIAVYVNDVCLGGGMVDTVEPEKDFD”, the “soluble on expression in E. coli” value is on record as “soluble”.

Regarding “MYYGALSIRAEAWLIVSPEVTKIMAKEQTDRTTLDLFAHERRPGRPKTNPLSRDEQLRINKRNQLKRDKVRGLKRVELKLNAEAVEALNELAESRNMSRSELIEEMLMQQLAALRSQGIV”, the “soluble on expression in E. coli” value was “not soluble”.

For “MNYRNKAFLKYEEDYFIERIIKALKDYEEIIIISNNPEEYKEFGLKVFKDIYPSQGPLSGIHSALNHIKNDYCLVVACDMPFINKDVVNYLGNIKEDYEILIPKFQERLQPLCAIYKKSCKDIMEKELINNSNKLIKTCFKFSMKVVEEFPFIEKVHKKEIKNFYNINTVDEYEDLIKKKEILEHHHHHH”, the “soluble on expression in E. coli” value is given as “not soluble”.

As to “MKFGPIAIEEAEGAVLAHSTTAGEKRFRKAHRLSAEDISVLKRAGIVQVVAAVLSPDDLGEDAAAQRIAESMRFSGIEARPAATGRVNLHAKASGIFTVDAAMIDAINAVDPAITLATLAQHAPVEKGQMVATVKIIPFAVASTLVDTVVKICAGGEILAVNAYQPVRVGVIQTVLPGIKPSVLDKTLRVTEARLARSGGRLTAERRTPHEIAPVAEAAASLARDNDLVVIFGASAMSDFADVVPAAIERAGGTVVRAGMPVDPGNLLVLGTLGGKRIIGAPGCARSPKENGFDWVLDRLVAGLDVTAKDIAGMGVGGLLMEIPTRPQPREPLPAKSRLKVGIVLLAAGRSSRMGGPNKLLALFDGKPLVRRTAERALGSKASGTIVVTGHQRERVRAALSGLDVTFADNPDFANGLSTSLKAGIAYLPEDTAGAMIVLGDMPGVVSGDLDRLIDAFRKAGGNSVVRASHQGKRGNPVLLPRALFPAIAHLEGDTGARHLVEAEGLDVVDVEIGEGASVDVDTREALEGAGGVLQDLEHHHHHH”, the “soluble on expression in E. coli” value was “not soluble”.

Consider “GPGSMSETIPVSVQCCEGRFELSVDSNHTLRDVLRQFKREVAALDPINLEEYVVNHEGKLLLDDSVTLQTVGVKKDSVFVLVRKACCPAASPEKDEDDM”, for which the “soluble on expression in E. coli” value is “soluble”.

“MTMLKNNLELLKKRYPEIYNEIKDIHVDSNAYQIIQNNEGQKTLKVTLDLYGENKSFFLHSKYHPDVEADRFAREQYKPEFSIQILYGFGLGYHVEKIAGLLKPDSMLYVIENNLMVFRSALENMDLCPILENRNVSLIVSKDVGYISEKVKELIDNNLDKVSFITHPASLKAIPEENEYFKFVMENWNLKKSITDDYDNTLRNNAKENLKLNSPNVGIFFDKFKDVPIIIVSTGPSLDKNIDLLKEAKGRALIISAGSALRPLLMRNIKPDFFAIIDPQDITYNQIKGYENIGIPFIYLVTAASYTVSRYLGPKLVAYYGKYNNSSEHLVDSGGSVATTILDIAIKMGGNPIILVGQDLAYVDGKNHAQYGSHASIYSPELKNMRRVKGQNGEMLYTSLGLLSYKYWIENRIQKEKRIFINATEGGAYIEGMKHIKLRDVISDYLKESFDFENKIKSILKESGIQHVQG”: the “soluble on expression in E. coli” value was “soluble”.

As to “THSQLDQLLTGLVDRVAEVDHAVVLSEDGLVVSKSTGFLRDDAERLAATASGLMSLSKGVSMDFRRGPVRQALIEMGKGYLILTAAGPGAHLVVLTRQGADVGVVAYQMNMLVKKIGEHLSAPPRG”, the “soluble on expression in E. coli” value was “soluble”.

As to “MPVKKVEKNILVLHGADKMFELVDKVEDYPHFLPWYSKTEVIGRSGNELKARLFMDYMHVRQSFATHNRNIPGREIRMELLEGPFKTLRGTWKFIDLGDDMCKIEFNLEYDFSNAVLSALISPVFNHLSTTLVEAFVKEADRRYA”, the “soluble on expression in E. coli” value was “not soluble”.

As to “GPGSMSEHATTDLEGRYAQLATIQSEIDAAPLLSPTVEKLGDGCNLMTEFSDNPPMLVKVVSLWRNEETKYKGIRYARRDGNCFYRSVVFGMHESLLNNKERAGAHLERITDLSRQVVADYGNFAEDFCHPAVEMAKKIESGECSTVEQLYELSTNGEAEYALYFYRYAVSHHIRTHEDDFLPFVVGMGHETVSEFCSVEVDAVASEADNVQVVAFAQCFDVRVIVEYVDGREGDCTTRHTFQQKDSHDANEYTTIEVTLLYRPGHYDLLYK”, the “soluble on expression in E. coli” value was “soluble”.

As for “MGSDKIHHHHHHMTPADNEIAEQQNFVDFNSILYTPQYAAGCFGLTTRRLMAIEEEHGLDIKRIKRGSSTSRVYTASDLFNIAALRRSLGHLKPIGRQIVASTFVPKGGTAKTTTAVNLAISAQFAGIKTLIIDNDPQGDTSNMLGYDPDLSPDDLVDMNIPSDRLVDGHFGNLLSPLLRMKPFSEKVLADVIKKPFGENGIHLIPADTYLEDLAVALDASNNSDMWYARFIEDANAGKVPGCDLSVYDLIIIDNAPAGSRLTKNSVAASDLLLCPVRMDKFSFRALLRLHEWCARFAKEYSYAPALMAIPTMFIRKRARLLANLQSLNTLFPGQVTEEKIYFSEDYSKSLDDGIPLMLWKRANSQTIDTARLVFGEILQKIRSLAA”, the “soluble on expression in E. coli” value is “not soluble”.
